Assay results published in IntAct's records for PubMed 21602882.

B1: Tumor protein 63 (Homo sapiens), Q9H3D4 (parent)
chain: MNFETSRCATLQYCPDPYIQRFVETPAHFSWKESYYRSTMSQSTQTNEFLSPEVFQHIWDFLEQPICSVQPIDLNFVDEPSEDGATNKIEISMDCIRMQDSDLSDPMWPQYTNLGLLNSMDQQIQNGSSSTSPYNTDHAQNSVTAPSPYAQPSSTFDALSPSPAIPSNTDYPGPHSFDVSFQQSSTAKSATWTYSTELKKLYCQIAKTCPIQIKVMTPPPQGAVIRAMPVYKKAEHVTEVVKRCPNHELSREFNEGQIAPPSHLIRVEGNSHAQYVEDPITGRQSVLVPYEPPQVGTEFTTVLYNFMCNSSCVGGMNRRPILIIVTLETRDGQVLGRRCFEARICACPGRDRKADEDSIRKQQVSDSTKNGDGTKRPFRQNTHGIQMTSIKKRRSPDDELLYLPVRGRETYEMLLKIKESLELMQYLPQHTIETYRQQQQQQHQHLLQKQTSIQSPSSYGNSSPPLNKMNSMNKLPSVSQLINPQQRNALTPTTIPDGMGANIPMMGTHMPMAGDMNGLSPTQALPPPLSMPSTSHCTPPPPYPTDCSIVSFLARLGCSSCLDYFTTQGLTTIYQIEHYSMDDLASLKIPEQFRHAIWKGILDHRQLHEFSSPSHLLRTPSSASTVSVGSSETRGERVIDAVRFTLRQTISFPPRDEWNDFNFDMDARRNKQQRIKEEGE

Variants of: B1
Settings: with hipk2_human HIPK2, Q9H2X6
Chain of hipk2_human HIPK2, Q9H2X6 (Q9H2X6 whole entry, looked up): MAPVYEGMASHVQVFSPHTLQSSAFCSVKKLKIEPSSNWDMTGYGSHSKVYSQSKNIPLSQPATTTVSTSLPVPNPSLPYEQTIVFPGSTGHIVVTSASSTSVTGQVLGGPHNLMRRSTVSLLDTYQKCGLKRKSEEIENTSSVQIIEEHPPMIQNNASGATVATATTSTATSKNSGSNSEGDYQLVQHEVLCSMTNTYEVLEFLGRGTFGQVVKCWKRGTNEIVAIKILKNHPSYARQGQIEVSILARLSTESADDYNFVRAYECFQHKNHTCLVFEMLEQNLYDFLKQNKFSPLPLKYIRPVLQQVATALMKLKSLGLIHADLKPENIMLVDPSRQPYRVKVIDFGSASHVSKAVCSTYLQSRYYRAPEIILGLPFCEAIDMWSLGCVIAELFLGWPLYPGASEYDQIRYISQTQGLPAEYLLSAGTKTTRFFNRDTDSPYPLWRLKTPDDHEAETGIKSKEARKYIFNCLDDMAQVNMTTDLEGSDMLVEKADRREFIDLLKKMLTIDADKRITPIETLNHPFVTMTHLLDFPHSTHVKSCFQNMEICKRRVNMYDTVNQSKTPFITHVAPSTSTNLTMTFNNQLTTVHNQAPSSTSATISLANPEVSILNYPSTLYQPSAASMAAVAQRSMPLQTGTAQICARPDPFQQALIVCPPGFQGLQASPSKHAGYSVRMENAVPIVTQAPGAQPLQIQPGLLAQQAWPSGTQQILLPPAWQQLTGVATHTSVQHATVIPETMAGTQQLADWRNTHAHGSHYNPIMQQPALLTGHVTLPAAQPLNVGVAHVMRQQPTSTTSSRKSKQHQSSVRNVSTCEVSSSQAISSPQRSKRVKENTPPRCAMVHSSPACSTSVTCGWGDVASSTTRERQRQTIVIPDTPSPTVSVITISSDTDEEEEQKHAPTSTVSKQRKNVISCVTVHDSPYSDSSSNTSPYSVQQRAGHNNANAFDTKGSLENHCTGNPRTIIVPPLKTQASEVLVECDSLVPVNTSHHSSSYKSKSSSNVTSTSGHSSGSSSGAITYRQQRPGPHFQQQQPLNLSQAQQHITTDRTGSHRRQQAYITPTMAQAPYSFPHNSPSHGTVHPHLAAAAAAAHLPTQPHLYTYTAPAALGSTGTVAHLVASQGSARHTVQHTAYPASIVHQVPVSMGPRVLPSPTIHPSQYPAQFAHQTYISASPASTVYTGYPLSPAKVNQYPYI

effect of a mutation on the interaction	Variant
disrupting interaction strength	T491A
